Source: a protein production outcome set (Wang et al. 2014)

Test: label from the status in PepcDB records

Sequence	protein production
MSLRRRFCAFLKGMQSPMIFDVKAPILGFETIHKMRLQKIDEIFLRLNSTEENSVVSFTLVNPFALRKYEFEVPTPLKILLELEGAKSVLVANIMVVQTPIELSTVNYLAPLIFNLDKQLMGQVVLDSNKYPHYHLRENILSHTHE	failed
MSLRSKRVLVVEDNPDDIALIRRVLDRKDIHCQLEFVDNGAKALYQVQQAKYDLIILDIGLPIANGFEVMSAVRKPGANQHTPIVILTDNVSDDRAKQCMAAGASSVVDKSSNNVTDFYGRIYAIFSYWLTVNHCQEGHHHHHH	not failed
MSLRTKGNAELILQIDAYLPDTYISDQRHKIEIYKKIRQIDNRVNYEELQEELIDRFGEYPDVVAYLLEIGLVKSYLDKVFVQRVERKDNKITIQFEKVTQRLFLAQDYFKALSVTNLKAGIAENKGLMELVFDVQNKKDYEILEGLLIFGESLLEIKESKEKNSEGHHHHHH	not failed
MSLRTQLIAVLIDDYSNPWFIDLIQSLSDVLTPKGYRLSVIDSLTSQAGTDPITSALSMRPDGIIIAQDIPDFTVPDSLPPFVIAGTRITQASTHDSVANDDFRGAEIATKHLIDLGHTHIAHLRVGSGAGLRRFESFEATMRAHGLEPLSNDYLGPAVEHAGYTETLALLKEHPEVTAIFSSNDITAIGALGAARELGLRVPEDLSIIGYDNTPLAQTRLINLTTIDDNSIGVGYNAALLLLSMLDPEAPHPEIMHTLQPSLIERGTCAPREGHHHHHH	not failed
MSLSDDPMASIKLLNLERENSAIAQYQSNIANLKTTLSSQETHLDSVSESLKSMRDIVLWGANGSLTDQDRSGMITELKSYRDSIESSFNAQDEEGHFLFSGTKTDTAALNKSSGAYVVEGNSDVRVVTVAKGVTMDSNMTAQEILDIGGGKNVLNQIDALIAEFEKPSPNFQAEVDASLNAIDDTMANVLGAMTEIGGRHNNLDLMDGAHSENKLFVDKVSGDLSALDYGEGHHHHHH	not failed
MSLSEGTFEVGKNTFLLNGEPFVVKAAEIHYPRIPKEYWEHRIKMCKALGMNTICLYVFWNFHEPEEGRYDFAGQKDIAAFCRLAQENGMYVIVRPGPYVCAEWEMGGLPWWLLKKKDIKLREQDPYYMERVKLFLNEVGKQLADLQISKGGNIIMVQVENEYGAFGIDKPYISEIRDMVKQAGFTGVPLFQCDWNSNFENNALDDLLWTINFGTGANIDEQFKRLKELRPDTPLMCSEFWSGWFDHWGAKHETRSAEELVKGMKEMLDRNISFSLYMTHGGTSFGHWGGANFPNFSPTCTSYDYDAPINESGKVTPKYLEVRNLLGNYLPEGETLPEIPDSIPTIAIPTIKMTEMAVLFDNLPHPKESEDIRTMEAFDQGWGSILYRTSLSASDKEQTLLITEAHDWAQVFLNGKKLATLSRLKGEGVVKLPPLKEGDRLDILVEAMGRMNFGKGIYDWKGITEKVELQSDKGVELVKDWQVYTIPVDYSFARDKQYKQQENAENQPAYYRSTFNLNELGDTFLNMMNWSKGMVWVNGHAIGRYWEIGPQQTLYVPGCWLKKGENEIIILDMAGPSKAETEGLRQPILDVQRGNGAYAHRKMGEGHHHHHH	not failed
MSLSEIKHWVFDMDGTLTIAVHDFAAIREALSIPAEDDILTHLAALPADESAAKHAWLLEHERDLAQGSRPAPGAVELVRELAGRGYRLGILTRNARELAHVTLEAIGLADCFAEADVLGRDEAPPKPHPGGLLKLAEAWDVSPSRMVMVGDYRFDLDCGRAAGTRTVLVNLPDNPWPELTDWHARDCAQLRDLLSA	not failed
MSLSKKTIYIAGLGLIGGSLALGIKRDHPDYEILGYNRSDYSRNIALERGIVDRATGDFKEFAPLADVIILAVPIKQTMAYLKELADLDLKDNVIITDAGSTKREIVEAAERYLTGKNVQFVGSHPMAGSHKSGAIAADVTLFENAYYIFTPTSLTKETTIPELKDILSGLKSRYVEIDAAEHDRVTSQISHFPHLLASGLMEQAADYAQAHEMTNHFAAGGFRDMTRIAESEPGMWASILMTNGPAVLDRIEDFKKRLDHVADLIKAEDESAIWEFFDNGRKKRKEMEIHKKGGVESAFDIFVDVPDREGHHHHHH	not failed
MSLSKPLFIFEMANNHMGNVEHGVALIRAIRESCQGFDFDFGFKLQYRNLDTFIHSSFKGRDDVKYVKRFEETRLQPEQMQKLVAEMKANGFKAICTPFDEESVDLIEAHGIEIIKIASCSFTDWPLLERIARSDKPVVASTAGARREDIDKVVSFMLHRGKDLTIMHCVAEYPTPDDHLHLARIKTLRQQYAGVRIGYSTHEDPDLMEPIMLAVAQGATVFEKHVGLPTDQYGINNYSANPEQVRRWLAAAARALAMLGDGEDDAVSETEQASLRSLRRGVFATRPVAAGEALTADNVSFAFPPVEGQLTANEWSKYVRYTAKTPIAADAPVMAADLEPVNEGHHHHHH	not failed
MSLSKVFTIGEILVEIMASKIGQPFDQPGIWNGPYPSGAPAIFIDQVTRLGVPCGIISCVGNDGFGDINIHRLAADGVDIRGISVLPLEATGSAFVTYHNSGDRDFIFNIKNAACGKLSAQHVDENILKDCTHFHIMGSSLFSFHMVDAVKKAVTIVKANGGVISFDPNIRKEMLDIPEMRDALHFVLELTDIYMPSEGEVLLLSPHSTPERAIAGFLEEGVKEVIVKRGNQGASYYSANEQFHVESYPVEEVDPTGAGDCFGGAWIACRQLGFDAHRALQYANACGALAVTRRGPMEGTSRLMEIETFIQRHDMSIREAAQEGHHHHHH	not failed
MSLSLWQQCLARLQDELPATEFSMWIRPLQAELSDNTLALYAPNRFVLDWVRDKYLNNINVLLNDFCGMDAPLLRFEVGSKPLVQTISQPAQSHHNPVSVARQQPVRMAPVRPSWDNSPVQAEHTYRSNVNPKHTFDNFVEGKSNQLARAAARQVADNPGGAYNPLFLYGGTGLGKTHLLHAVGNGIIARKPNAKVVYMHSERFVQDMVKALQNNAIEEFKRYYRSVDALLIDDIQFFANKERSQEEFFHTFNALLEGNQQIILTSDRYPKEINGVEDRLKSRFGWGLTVAIEPPELETRVAILMKKADENDIRLPGEVAFFIAKRLRSNVRELEGALNRVIANANFTGRSITIDFVREALRDLLALQEKLVTIDNIQKTVAEYYKIKIADLLSKRRSRSVARPRQMAMALAKELTNHSLPEIGDAFGGRDHTTVLHACRKIEQLREESHDIKEDFSNLIRTLSSLEHHHHHH	not failed
MSLSNGELAILVFGYPETMANQVIAYFQEFGTILEDFEVLRKPQAMTVGLQDRQFVPIFSGNSWTKITYDNPASAVDALLENGAVFNGVLLGVIPYTKDAVERLQKRKLTSSEDIGSGITTAAAEGHHHHHH	not failed
MSLSNVFYRSSKPYPVAVRGEGVFLYDDAGRRYLDGSSGALVANIGHGRAEVGERMAAQAARLPFVHGSQFSSDVLEEYAGRLARFVGLPTFRFWAVSGGSEATESAVKLARQYHVERGEPGRFKVITRVPSYHGASLGSLAASGMGARRELYTPLMRPEAWPKLPKPDPARNGAEDAEGLRALLEREGPETVAAFMAEPVVGASDAALAPAPGYYERVRDICDEAGIIFIADEVMSGMGRCGSPLALSRWSGVTPDIAVLGKGLAAGYAPLAGLLAAPQVYETVMGGSGAFMHGFTYAGHPVSVAAGLSVLDIVEREDLTGAAKERGAQLLAGLQALQARFPQMMQVRGTGLLLGVVLGDLATGQAFETPGIASRIGAAALKRGLITYPGSGAEPNGRGDHLLLGPPLSITAAEVDGLLALLAGALEDVLGEGHHHHHH	not failed
MSLSPDLLLAFALFALVTSITPGPNNTMLLASGVNFGFNRSIPHILGISCGFFVLVLAVGLGLGAVFEAYPLLYSVLRYVGAVYLLYLAWKIARSGPLSDEQQHHGRPLGYWGAAAFQWVNPKAWVMAVGAISTYTPLQGYFTNVLVIAAVFALINAPTVSLWAACGSLLRNVLRNPRWLRLFNLLMAALLVLSLAPLLFEKMS	failed
MSLSPSARRVQGALETRGFGHLKVVELPASTRTAKEAAQAVGAEVGQIVKSLVFVGEKGAYLFLVSGKNRLDLGKATRLVGGPLRQATPEEVRELTGFAIGGVPPVGHNTPLPAYLDEDLLGYPEVWAAGGTPRALFRATPKELLALTGAQVADLKEG	not failed
MSLSRVTEIRYVGYGVKDFDAEKAFYADVWGLEPVGEDANNAWFKAQGADEHHVVQLRRADENRIDVIALAADSRSDVDALRASVEAAGCKVASEPAVLATPGGGYGFRFFSPDGLLFEVSSDVAKGAKRDLARWEGVPVKISHIVLHSPNHQDMVKFFTDVLGFKVSDWLGDFMCFLRCNSAHHRIAILPGPPCLNHVAYDMLSVDDMMRGAHRLKVKGIDIGWGPGRHTAGNNTFSYFVTPGGFVTEYTSELEEVDFDTHQYKVHVPAPMVMDQWGIGTGGPQTLPHPHANPGLFQTAEAEGHHHHHH	not failed
MSLSSPNILLTRIDNRLVHGQVGVTWTSTIGANLLVVVDDVVANDDIQQKLMGITAETYGFGIRFFTIEKTINVIGKAAPHQKIFLICRTPQTVRKLVEGGIDLKDVNVGNMHFSEGKKQISSKVYVDDQDLTDLRFIKQRGVNVFIQDVPGDQKEQIPDEGHHHHHH	not failed
MSLSTGATIVIDLGKTLSKVSLWDLDGRMLDRQVRPSIPLEIDGIRRLDAPDTGRWLLDVLSRYADHPVTTIVPVGHGAGIAALTDGRLAFPPLDYEQSIPEAVMADYRSQRDPFARTGSPALPDGLNIGSQLWWLDQLHPDVMANATLLPWAQYWAWFLTGRAVSEVTSLGCHSDLWDPQDGDFSPMAKRLGWAARFAPIVRAGDTVGALLPAIAERTGLSPDVQVLAGLHDSNAALLAARGFAEIADNEATVLSTGTWFIAMRLPATPVDTATLPEARDCLVNVDVHGRPVPSARFMGGREIETLIEIDTRRVDIKPDQPALLAAVPEVLRHGRMILPTLMRGFGPYPHGRFAWINRPEDWFERRAAACLYAALVADTALDLIGSTGRILVEGRFAEADVFVRALASLRPDCAVYTANAHNDVSFGALRLIDPGLRPQGELVRIEPLDTGSWADLDTYRNRWQAEVEAAKVEEGHHHHHH	not failed
MSLSTMLVAEDLSAVGGISLSSALPVLTAMQYDVAALPTSLLSTHTSGYGTPAVVDLSTWLPQVFAHWTRAQLHFDQALIGYVGSVALCQQITTYLEQQTLSLLVVDPVLGDLGQLYQGFDQDYVAAMRQLIQQADVILPNTTEAALLTGAPYQVTPDLEVILPALQAQLKTGAHAVITDVQRADQIGCAWLDEAGHVQYCGARRLPGHYNGTGDTLAAVIAGLLGRGYPLAPTLARANQWLNMAVAETIAQNRTDDRQGVALGDLLQAILALNEGHHHHHH	not failed
MSLSYVLPTLTYSLAASTLGLLQAIPGAFTGFRHTDSDSARGLLLGIFILTVSALLTLAVSAVFWLASFTLFRVLSRYREYAADRGAVAITGDPAALASALATIDDEMAAAPDHDLRAQDGGLDALYIAPIDETQFKDAPDFVANDVFPQTHPPTEARIERLEAMATEGPT	failed
MSLTASYETIKARLDGTVLSATFNAPPMNLIGPEVVRDLVALLEELAHPTAPRVVIFDSADADFFFPHVDMTKVPEYTAEAAKAGGPGDASLGMLFRKLSQLPAVTIAKLRGRARGAGSEFLLACDMRFASRENAILGQPEVGIGAPPGAGAIQHLTRLLGRGRALEAVLTSSDFDADLAERYGWVNRAVPDAELDEFVAGIAARMSGFPRDALIAAKSAINAISLPAPAEVRADAALFQQLVRGEKVQQRTAELFKQGFQTRGATELDLGDALGHLKAVDEGHHHHHH	not failed
MSLTGRAFAIPLRTRFRGITVREGMLVRGAAGWGEFSPFAEYGPRECARWWAACYEAAELGWPAPVRDTVPVNATVPAVGPEEAARIVASSGCTTAKVKVAERGQSEANDVARVEAVRDALGPRGRVRIDVNGAWDVDTAVRMIRLLDRFELEYVEQPCATVDELAEVRRRVSVPIAADESIRRAEDPLRVRDAEAADVVVLKVQPLGGVRAALRLAEECGLPVVVSSAVETSVGLAAGVALAAALPELPYACGLATLRLLHADVCDDPLLPVHGVLPVRRVDVSEQRLAEVEIDPAAWQARLAAARAAWEQVEREPGPEGHHHHHH	not failed
